Target: T1, Gal4 DNA binding domain (DBD) fused to the RXR ligand binding domain (GBD:RXR) (yeast; human, UniProt P04386 1-147; P19793 203-462, limits assumed)
T1 construct: Expressed inside yeast (PJ69-4A or MaV103) from plasmid pGBDRXR; The order DBD then LBD follows the name GBD:RXR; also called wild-type GBD:RXR; product of pGBDRXR
Test: yeast two-hybrid type growth selection (chemical complementation), PJ69-4A on SC-Ade plates with 10^-5 M 9cRA
Method: The same colony was used for streaking on all the plates, ending with a SC plate to confirm efficient transfer of the cells to each plate. Both selective and non-selective plates were incubated at 30° C. for two days. Each set of genetic selection plates was replicated at least once.

binding result: no binding
B1: Gal4 activation domain (GAD) without a coactivator domain (other, yeast, UniProt P04386 768-881, looked up)
chain: ANFNQSGNIADSSLSFTFTNSSNGPNLITTQTNSQALSQPIASSNVHDNFMNNEITASKIDDGNNSKPLSPGWTDQTAYNAFGITTGMFNTTTMDDVYNYLFDDEDTPPNPKKE
notes: range 768-881; Control expressed from pGAD10; also called Gal4 AD only; product of pGAD10

Source: US20110027820A1 (GEORGIA TECH RESEARCH, published 2011)
